# Experimental data taken from patent US20240116985A1 (published 2024).
# Starred links: 1 amine or outer side, 2 acyl side, 3 side chain; linkers in the order of their positions; H or OH if unused. Positions of bridges follow the written chain, without caps; N, C: chain ends. Non-standard residues stand in square brackets, D forms with d. Primed or numbered codes have the meaning given here. RdN(3) = (R)-4-(((allyloxy)carbonyl)(methyl)amino)-2-amino-2-methylbutanoic acid, stapling residue, C=CCOC(=O)N(C)CC[C@@](C)(N[*:1])C(=O)[*:2]; RdN″ = (R)-4-(((allyloxy)carbonyl)(methyl)amino)-2-amino-2-methylbutanoic acid (stapling residue), C=CCOC(=O)N(C)CC[C@@](C)(N[*:1])C(=O)[*:2]; B5(16) = 2-amino-2-(pent-4-en-1-yl)hept-6-enoic acid = 2,2-bis(4-pentenyl)glycine (stitching residue), C=CCCCC(CCCC=C)(N[*:1])C(=O)[*:2]; B5(4) = 2,2-bis(4-pentenyl)glycine = 2-amino-2-(pent-4-en-1-yl)hept-6-enoic acid (stitching residue), C=CCCCC(CCCC=C)(N[*:1])C(=O)[*:2]; B5(5) = 2,2-bis(4-pentenyl)glycine, 2-amino-2-(pent-4-en-1-yl)hept-6-enoic acid (stitching residue), C=CCCCC(CCCC=C)(N[*:1])C(=O)[*:2]; RdN = (R)-4-(((allyloxy)carbonyl)(methyl)amino)-2-amino-2-methylbutanoic acid, C=CCOC(=O)N(C)CC[C@@](C)(N[*:1])C(=O)[*:2]; B5(9) = 2-amino-2-(pent-4-en-1-yl)hept-6-enoic acid (2,2-bis(4-pentenyl)glycine), C=CCCCC(CCCC=C)(N[*:1])C(=O)[*:2]; B5(19) = 2-amino-2-(pent-4-en-1-yl)hept-6-enoic acid (bis(4-pentenyl)glycine), C=CCCCC(CCCC=C)(N[*:1])C(=O)[*:2]; EtGA = (S)-2-amino-3-((carboxymethyl)(ethyl)amino)propanoic acid, CCN(CC(=O)[*:3])C[C@H](N[*:1])C(=O)[*:2]; B5 = 2-amino-2-(pent-4-en-1-yl)hept-6-enoic acid, C=CCCCC(CCCC=C)(N[*:1])C(=O)[*:2]; 23FF = 2,3-difluoro-L-phenylalanine, O=C([C@H](Cc1cccc(F)c1F)N[*:1])[*:2]; Trp(7-F) = N[C@@H](Cc1c[nH]c2c(F)cccc12)C(=O)O; Phe(3,5-F2) = N[C@@H](Cc1cc(F)cc(F)c1)C(=O)O; S7 = C[C@@](CCCCCC=[*:3])(N[*:1])C(=O)[*:2]; Bta = N[C@@H](Cc1csc2ccccc12)C(=O)O; αAllylPro = C=CC[C@@]1(C(=O)O)CCCN1; S8 = C=CCCCCCC[C@](C)(N)C(=O)O; Aib = CC(C)(N)C(=O)O
# T1: full-length beta-Catenin (Uniprot ID P35222) (Homo sapiens (Human), UniProt P35222 1-781)
# T1 construct: The assay text says full-length beta-Catenin (Uniprot ID P35222); also called bCat; B-Catenin
# T1 sequence: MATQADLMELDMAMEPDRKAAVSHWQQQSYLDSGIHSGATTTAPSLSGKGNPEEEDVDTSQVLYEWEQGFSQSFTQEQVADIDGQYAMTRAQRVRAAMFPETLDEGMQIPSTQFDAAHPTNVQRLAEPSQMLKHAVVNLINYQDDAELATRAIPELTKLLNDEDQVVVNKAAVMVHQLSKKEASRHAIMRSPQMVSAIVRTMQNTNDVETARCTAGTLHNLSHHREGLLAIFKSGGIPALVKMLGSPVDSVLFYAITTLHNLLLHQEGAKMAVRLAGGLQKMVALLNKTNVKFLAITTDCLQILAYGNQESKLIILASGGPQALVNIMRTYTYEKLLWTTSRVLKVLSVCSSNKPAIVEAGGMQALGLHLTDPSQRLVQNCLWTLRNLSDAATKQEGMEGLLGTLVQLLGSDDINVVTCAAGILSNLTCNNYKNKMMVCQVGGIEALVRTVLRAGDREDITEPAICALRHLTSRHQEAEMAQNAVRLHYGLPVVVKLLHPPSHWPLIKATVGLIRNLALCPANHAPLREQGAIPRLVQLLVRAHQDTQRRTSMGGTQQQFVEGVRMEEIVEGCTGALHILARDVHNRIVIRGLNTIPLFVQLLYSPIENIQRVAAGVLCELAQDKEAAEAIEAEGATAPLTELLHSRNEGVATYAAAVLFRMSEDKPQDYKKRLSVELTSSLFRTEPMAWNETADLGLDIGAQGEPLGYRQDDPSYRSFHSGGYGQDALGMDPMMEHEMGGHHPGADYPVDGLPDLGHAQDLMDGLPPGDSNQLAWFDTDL
# T2: full-length beta-Catenin (Uniprot ID P35222) (Homo sapiens (Human), UniProt P35222 1-781)
# T2 construct: The assay protocol says 'full-length beta-Catenin (Uniprot ID P35222)'; also called bCat; B-Catenin
# T2 sequence: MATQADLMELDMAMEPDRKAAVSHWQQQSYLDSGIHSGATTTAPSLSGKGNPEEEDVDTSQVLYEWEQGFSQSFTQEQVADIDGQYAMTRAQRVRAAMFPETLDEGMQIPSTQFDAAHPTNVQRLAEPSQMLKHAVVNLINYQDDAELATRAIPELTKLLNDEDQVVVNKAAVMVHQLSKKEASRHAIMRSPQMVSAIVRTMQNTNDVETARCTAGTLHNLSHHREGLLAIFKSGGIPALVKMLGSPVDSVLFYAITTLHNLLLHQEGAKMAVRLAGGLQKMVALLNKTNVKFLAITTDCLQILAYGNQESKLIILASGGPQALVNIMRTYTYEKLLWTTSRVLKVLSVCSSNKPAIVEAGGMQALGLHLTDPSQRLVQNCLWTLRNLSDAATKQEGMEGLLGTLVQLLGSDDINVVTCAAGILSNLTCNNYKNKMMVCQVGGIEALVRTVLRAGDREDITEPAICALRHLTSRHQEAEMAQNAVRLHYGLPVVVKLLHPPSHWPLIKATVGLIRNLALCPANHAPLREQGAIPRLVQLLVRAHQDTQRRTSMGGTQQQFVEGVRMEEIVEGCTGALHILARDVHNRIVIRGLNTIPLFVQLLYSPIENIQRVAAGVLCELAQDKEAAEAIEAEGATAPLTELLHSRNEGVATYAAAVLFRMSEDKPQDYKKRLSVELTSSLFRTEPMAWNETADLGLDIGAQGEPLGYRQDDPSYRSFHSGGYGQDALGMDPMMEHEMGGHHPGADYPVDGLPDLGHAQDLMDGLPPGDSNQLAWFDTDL
# Columns and labels:
# [1] = biological target: T1, full-length beta-Catenin (Uniprot ID …); assay: fluorescence polarization competition; full-length beta-catenin with 5FAM-labeled TCF4 (residues 10-53) probe as competitor
# Description: The plate was incubated protected from light for 60 minutes at 20° C. prior to read. Reads were performed on a CLARIOstar plate reader (BMG Labtech) in duplicate, and data were fitted to a 1:1 binding model with hill slope using an in-house script. All provided concentrations are final concentrations.
# [2] = biological target: T2, full-length beta-Catenin (Uniprot ID …); assay: fluorescence polarization competition; full-length beta-catenin, competitor 5FAM-TCF4(10-53) probe
# How it was run: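 Fluorescence polarization was read in duplicate after the plate sat 60 minutes at 20° C. shielded from light. Values come from fitting to a 1:1 binding model with hill slope.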
Binder,IC50 [1],IC50 [2]
"Ac-[αAllylPro]DA[B5(9)]DEAAFV[S8][Phe(3,5-F2)][Bta]Q-NH2 (staple 1-4, 4-11, Stapled peptide; also called Ac-PL3-Asp-Ala-B5-Asp-Glu-Ala-Ala-Phe-Val-S8-35FF-BztA-Gln-NH2) [I-394]",5 µM,
"Ac-[αAllylPro]DA[B5(9)]DEAA[23FF]V[S8]F[Bta]Q-NH2 (staple 1-4, 4-11; also: later eluting HPLC isomer, E/Z not assigned, Stapled peptide; also called Ac-PL3-Asp-Ala-B5-Asp-Glu-Ala-Ala-23FF-Val-S8-Phe-BztA-Gln-NH2) [I-391]",1.91 µM,
"Ac-[αAllylPro]DA[B5(9)]DEAA[23FF]V[S8]F[Bta]Q-NH2 (staple 1-4, 4-11; not fully specified; printed as Ac-PL3-Asp-Ala-B5-Asp-Glu-Ala-Ala-23FF-Val-S8-Phe-BztA-Gln-NH2, Stapled peptide; also called Ac-PL3-Asp-Ala-B5-Asp-Glu-Ala-Ala-23FF-Val-S8-Phe-BztA-Gln-NH2) [I-390]",3.42 µM,
"ADIXDEAAFAXFWA (not fully specified; N-terminal acetyl (Ac); RdN at 4 and S7 at 11 (staple RdN-S7 by olefin metathesis); C-terminal amide (NH2), also called Ac-Ala-Asp-Ile-RdN-Asp-Glu-Ala-Ala-Phe-Ala-S7-Phe-Trp-Ala-NH2) [I-154]",,5 µM
"Ac-ADI[RdN″]DEAAFA[S7]FWH-NH2 (staple 4-11, also called Ac-Ala-Asp-Ile-RdN-Asp-Glu-Ala-Ala-Phe-Ala-S7-Phe-Trp-His-NH2) [I-152]",,5 µM
"Ac-[αAllylPro]DA[B5(4)]D[EtGA]AAFV[S8]FWQ-NH2 (staple 1-4, 4-11; not fully specified, also called Ac-PL3-Asp-Ala-B5-Asp-EtGA-Ala-Ala-Phe-Val-S8-Phe-Trp-Gln-NH2) [I-172]",,5 µM
"ADIXDEAAFAXFWA (not fully specified; N-terminal acetyl (Ac); RdN at 4 and S7 at 11 (staple RdN-S7 by olefin metathesis); C-terminal amide (NH2), also called Ac-Ala-Asp-Ile-RdN-Asp-Glu-Ala-Ala-Phe-Ala-S7-Phe-Trp-Ala-NH2) [I-155]",,5 µM
"Ac-[αAllylPro]DA[B5(9)]DEAAFV[S8][23FF][Bta]Q-NH2 (staple 1-4, 4-11; also: later eluting HPLC isomer, E/Z not assigned, Stapled peptide; also called Ac-PL3-Asp-Ala-B5-Asp-Glu-Ala-Ala-Phe-Val-S8-23FF-BztA-Gln-NH2) [I-389]",5 µM,
"XDAXDEAAFVXFXQ (not fully specified; N-terminal Ac; PL3 at 1, B5 at 4, S8 at 11 (stapled 1-4 and 4-11 by olefin metathesis); 23FF at 12; BztA at 13; C-terminal NH2, Stapled peptide; also called Ac-PL3-Asp-Ala-B5-Asp-Glu-Ala-Ala-Phe-Val-S8-23FF-BztA-Gln-NH2) [I-388]",5 µM,

# Further lines, results first:
IC50 [1],IC50 [2],Binder
,1.99 µM,"Ac-[αAllylPro]DI[B5(5)]DEAAFV[S8]FWH-NH2 (staple 1-4, 4-11, also called Ac-PL3-Asp-Ile-B5-Asp-Glu-Ala-Ala-Phe-Val-S8-Phe-Trp-His-NH2) [I-176]"
,2.16 µM,"Ac-[αAllylPro]DA[B5(16)]DEAAFV[S8]F[Trp(7-F)]Q-NH2 (staple 1-4, 4-11, also called Ac-PL3-Asp-Ala-B5-Asp-Glu-Ala-Ala-Phe-Val-S8-Phe-7FW-Gln-NH2) [I-166]"
,0.056 µM,"XDIXDEAAFQXFWQ (not fully specified; N-terminal acetyl (Ac); PL3 at 1, B5 at 4, S8 at 11 (staples PL3-B5 and B5-S8 by olefin metathesis); C-terminal amide (NH2), also called Ac-PL3-Asp-Ile-B5-Asp-Glu-Ala-Ala-Phe-Gln-S8-Phe-Trp-Gln-NH2) [I-180]"
,3.12 µM,"Ac-[αAllylPro]DA[B5]D[EtGA]AAFV[S8]FWQ-NH2 (staple 1-4, 4-11; not fully specified, also called Ac-PL3-Asp-Ala-B5-Asp-EtGA-Ala-Ala-Phe-Val-S8-Phe-Trp-Gln-NH2) [I-173]"
,0.146 µM,"Ac-[αAllylPro]DA[B5(4)]DEAAFV[S8]F[Bta]Q-NH2 (staple 1-4, 4-11, also called Ac-PL3-Asp-Ala-B5-Asp-Glu-Ala-Ala-Phe-Val-S8-Phe-BztA-Gln-NH2) [I-144]"
,2.14 µM,"Ac-ADI[RdN(3)]DEAAFQ[S7]FWA-NH2 (staple 4-11, also called Ac-Ala-Asp-Ile-RdN-Asp-Glu-Ala-Ala-Phe-Gln-S7-Phe-Trp-Ala-NH2) [I-153]"
,1.64 µM,"Ac-[Aib]DI[RdN]DEAAFQ[S7]FW-NH2 (staple 4-11, also called Ac-Aib-Asp-Ile-RdN-Asp-Glu-Ala-Ala-Phe-Gln-S7-Phe-Trp-NH2) [I-147]"
,1.63 µM,"Ac-[αAllylPro]DA[B5(19)]DEAAFQ[S8]FWH-NH2 (staple 1-4, 4-11, also called Ac-PL3-Asp-Ala-B5-Asp-Glu-Ala-Ala-Phe-Gln-S8-Phe-Trp-His-NH2) [I-178]"
